In publication PMC10867769, “Grafting the ALFA tag for structural studies of aquaporin Z” (Journal of Structural Biology: X, 2024):

Columns and labels:
[1] = target: octameric (AqpZ-ALFA)4(nB)4 complex (E. coli) (UniProt P60844); test: cryo-EM structure; AqpZ-ALFA incubated with five-fold molar excess of nB in C8E4, complex purified (StrepTrap, Superdex 200), 10 mg/mL, 5-fold molar excess of 18:1 cardiolipin (TOCDL); prepared at room temperature, grid at 5 °C; D4 symmetry, 1.9 Å
[2] = target: the molecule itself; test: as above

octameric (AqpZ-ALFA)4(nB)4 complex (from UniProt P60844 1-227)
stoichiometry N [1]: 2

B1: AqpZ-ALFA (E. coli aquaporin Z with the ALFA tag grafted onto its C-terminus, flexible linker and Strep-tag II) (other)
chain: MFRKLAAECFGTFWLVFGGCGSAVLAAGFPELGIGFAGVALAFGLTVLTMAFAVGHISGGHFNPAVTIGLWAGGRFPAKEVVGYVIAQVVGGIVAAALLYLIASGKTGFDAAASGFASNGYGEHSPGGYSMLSALVVELVLSAGFLLVIHGATDKFAPAGFAPIAIGLALTLIHLISIPVTNTSVNPARSTAVAIFQGGWALEQLWFFWVVPIVGGIIGGLIYRTLLRASRLEEELRRRLTEPGGGPG
notes: Aquaporin Z (AqpZ), E. coli, UniProt P60844; from the start up to the printed C-terminal residues IYRTLL; the last residues of the natural protein are replaced by the graft; followed by aswshpqfek (Strep-tag II, written as a tag); Tetramer; also called AqpZ-ALFA-St; source: E. coli BL21-A1, purified (octyl glucoside extraction of membranes, StrepTrap, Superdex 200 in C8E4); not shown: Strep-tag …
stoichiometry N [2]: 4
